# Results reported in publication PMC4811514, “MULTIMERIN2 binds VEGF-A primarily via the carbohydrate chains exerting an angiostatic function and impairing tumor growth” (Oncotarget, 2015).
# B1: VEGF-D (ligand, UniProt O43915 89-205, looked up)
# chain: FAATFYDIETLKVIDEEWQRTQCSPRETCVEVASELGKSTNTFFKPPCVNVFRCGGCCNEESLICMNTSTSYISKQLFEISVPLTSVPELVPVKVANHTGCKCLPTAPRHPYSIIRR
# notes: vascular endothelial growth factor D; Commercial VEGF-D is usually the processed VEGF homology domain, not the whole precursor; source: bought: Peprotech
# Columns and labels:
# MMRN2 Δ2 deletion mutant = MMRN2 Δ2 deletion mutant (UniProt Q9H8L6); test: SPR; Biacore X100, CM5 chip; Δ2 fragment immobilised by amine coupling (1770 RU); VEGF-A165 in HBS-EP buffer, 30 μL/min, 60 seconds of contact
# MULTIMERIN2 [1] = biological target: T1, MULTIMERIN2 (UniProt Q9H8L6 23-949, glycosylated (carbohydrate chains)); test: SPR; Biacore X100, CM5 chip; MMRN2 immobilised by amine coupling; NaCl concentration of 300 mM instead of 150 mM
# T1 construct: MULTIMERIN2 (MMRN2), the whole recombinant His-tagged molecule; also called MMRN2; the whole molecule; source: 293-EBNA cells, purified from serum-free medium (Ni-NTA resin)
# T1 sequence (looked up): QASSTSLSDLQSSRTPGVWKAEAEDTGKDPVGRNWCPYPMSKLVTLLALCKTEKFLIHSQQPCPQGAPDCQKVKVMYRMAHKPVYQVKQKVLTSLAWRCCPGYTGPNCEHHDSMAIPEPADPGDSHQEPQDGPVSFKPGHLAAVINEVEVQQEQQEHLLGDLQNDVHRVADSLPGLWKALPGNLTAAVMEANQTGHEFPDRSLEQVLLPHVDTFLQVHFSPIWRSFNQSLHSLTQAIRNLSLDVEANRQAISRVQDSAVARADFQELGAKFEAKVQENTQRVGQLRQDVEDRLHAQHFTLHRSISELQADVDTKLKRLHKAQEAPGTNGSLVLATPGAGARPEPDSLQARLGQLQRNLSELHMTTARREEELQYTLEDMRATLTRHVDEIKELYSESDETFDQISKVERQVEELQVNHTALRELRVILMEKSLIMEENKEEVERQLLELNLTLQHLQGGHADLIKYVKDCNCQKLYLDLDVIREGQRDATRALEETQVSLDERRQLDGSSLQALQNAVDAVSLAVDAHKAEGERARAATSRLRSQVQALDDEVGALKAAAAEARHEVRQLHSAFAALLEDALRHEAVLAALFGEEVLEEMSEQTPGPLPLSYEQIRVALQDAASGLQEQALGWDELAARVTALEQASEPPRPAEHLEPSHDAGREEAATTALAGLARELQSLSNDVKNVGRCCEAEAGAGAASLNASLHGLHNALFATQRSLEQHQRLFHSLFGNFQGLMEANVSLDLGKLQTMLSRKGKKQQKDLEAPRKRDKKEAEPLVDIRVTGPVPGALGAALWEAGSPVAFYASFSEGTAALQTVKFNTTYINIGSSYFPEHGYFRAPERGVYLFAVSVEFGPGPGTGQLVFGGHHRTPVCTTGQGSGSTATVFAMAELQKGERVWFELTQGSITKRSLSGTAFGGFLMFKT
# MULTIMERIN2 [2] = biological target: T1, MULTIMERIN2; test: SPR; Biacore X100, CM5 chip; MMRN2 immobilised by amine coupling (3150 RU); cytokines in HBS-EP buffer (150 mM NaCl), 30 μL/min, 60 seconds of contact
molecule,measurement,setting,value
VEGF-A165 (ligand),Kd,MMRN2 Δ2 deletion mutant,430 nM
VEGF-A145 (ligand),Kd,MULTIMERIN2 [1],27 nM
VEGF-A121 (ligand),Kd,MULTIMERIN2 [2],200 nM
VEGF-A189 (ligand),Kd,MULTIMERIN2 [1],3 nM
VEGF-C (from UniProt P49767 112-227) (ligand),Kd,MULTIMERIN2 [2],750 nM
PlGF-1 (from UniProt P49763-2 19-149) (ligand),Kd,MULTIMERIN2 [2],560 nM
B1,Kd,MULTIMERIN2 [2]; both partners purified,640 nM
